According to patent US20160215027A1:

How the values were obtained:
human IgG (human) [1] = experiment: human IgG binding to commercial gel support (ligand at 6 mg/mL gel on epoxy-activated crosslinked agarose); elution, A280
human IgG (human) [2] = experiment: human IgG binding to commercial gel support (epoxy-activated crosslinked agarose); elution, A280

With “native sequence protein A with the introduced C-terminal cysteine (ligand of rProtein A-Sepharose FF, GE Healthcare Science) (from UniProt P38507 37-327)” as the substance, how does the Human IgG binding amount (human IgG (human) [1]) read?
Its Human IgG binding amount is 50.1 mg/mL gel.

With “tetramer of four linked Z domains of protein A with the introduced C-terminal cysteine residue (ligand of MabSelect SuRe, GE Healthcare Science) (designed binder)” as the substance, how does the Human IgG binding amount (human IgG (human) [2]) read?
The Human IgG binding amount was 45.5 mg/mL gel.
